Laboratory results as given in the supplement of paper PMC7877785.
± gives the uncertainty stated by the source.

Experiment: self-splicing fitness, log relative to wild type (ln ratio); higher = more splicing; Tetrahymena group I intron in knt gene, E. coli kanamycin selection, DiMSum; sequences stand for … in CUCUCU…GGAGGGAAAAGUUAUCAGGCAUGCACCUGGUAGCUAGUCUUUAAACCAAUAGAUUGCAUCGGUUUAAAAGGCAAGACCGUCAAAUUGCGGGAAAGGGGUCAACAGCCGUUCAGUACCAAGUCUCAGGGGAAACUUUGAGAUGGCCUUGCAAAGGGUAUGGUAAUAAGCUGACGGACAUGGUCCUAACCACGCAGCCAAGUCCUAAGUCAACAGAUCUUCUGUUGAUAUGGAUGCAGUUCACAGACUAAAUGUCGGUCGGGGAAGAUGUAUUCUUCUCAUAAGAUAUAGUCGGACCUCUCCUUAAUGGGAGCUAGCGGAUGAAGUGAUGCAACACUGGAGCCGCUGGGAACUAAUUUGUAUGCGAAAGUAUAUUGAUUAGUUUUGGAGUACUCGUGGUCG
In short: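 Colonies from six replicate transformations of E. coli BL21(DE3) were pooled and amplicon-sequenced on an Illumina HiSeq 2500. The library placed an intron with all eight P1ex-region nucleotides randomised inside the knt kanamycin-resistance gene on pET-22b(+), and cells grew overnight at 37°C or 30°C on LB agar with or without 25 μg/mL kanamycin (plus 100 μg/mL carbenicillin, 50 μM IPTG, 0.2% rhamnose). Fitness is the DiMSum error-weighted combination of wild-type-normalised replicate fold changes, kanamycin versus none.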

| Sequence | self-splicing fitness (ln) (30 °C) | self-splicing fitness (ln) (37 °C) |
| --- | --- | --- |
| UCCCAGCAAUAUUACGCAUU | -2.93 ± 0.076 | -1.58 ± 0.082 |
| UCCCAGCAAUAUUACGCCUC | -3.11 ± 0.23 | -1.98 ± 0.29 |
| UCCCAGCAAUAUUACGCGGC |  | -0.462 ± 0.4 |
| UCCCAGCAAUAUUACGGAGU | -0.413 ± 0.053 | -0.504 ± 0.066 |
| UCCCAGCAAUAUUACGGAUA | -1.51 ± 0.093 | -0.799 ± 0.084 |
| UCCCAGCAAUAUUACGGGAA | -3.21 ± 0.2 | -1.83 ± 0.14 |
| UCCCAGCAAUAUUACGGGGU | -3.87 ± 0.27 | -2.86 ± 0.22 |
| UCCCAGCAAUAUUACGGGUG | -1.4 ± 0.06 | -0.507 ± 0.075 |
| UCCCAGCAAUAUUACGGUAG | -2.7 ± 0.12 | -1.45 ± 0.11 |
| UCCCAGCAAUAUUACGGUCC | -1.68 ± 0.14 | -1.26 ± 0.18 |
| UCCCAGCAAUAUUACGUAAC | -2.45 ± 0.11 | -1.61 ± 0.17 |
| UCCCAGCAAUAUUACGUAGU | -0.707 ± 0.046 | -0.458 ± 0.066 |
| UCCCAGCAAUAUUACGUGAU | -2.17 ± 0.076 | -1.52 ± 0.12 |
| UCCCAGCAAUAUUACGUGCC | -4.06 ± 0.23 | -2.32 ± 0.2 |
| UCCGAGCAAUAUUACGAAAC | -2.59 ± 0.27 | -1.62 ± 0.28 |
| UCCGAGCAAUAUUACGAAAU | -4.17 ± 0.34 |  |
| UCCGAGCAAUAUUACGAGGC | -3.1 ± 0.36 | -1.7 ± 0.39 |
| UCCGAGCAAUAUUACGAUCC |  | -0.617 ± 0.39 |
| UCCGAGCAAUAUUACGAUGG | -0.964 ± 0.097 | -0.212 ± 0.12 |

| Sequence | self-splicing fitness (ln) (30 °C) | self-splicing fitness (ln) (37 °C) |
| --- | --- | --- |
| UCCGAGCAAUAUUACGCAGA | -3.65 ± 0.43 | -2.49 ± 0.23 |
| UCCGAGCAAUAUUACGCAUA | -2.24 ± 0.42 | -2.26 ± 0.35 |
| UCCGAGCAAUAUUACGCGGG | -3.02 ± 0.28 | -2.78 ± 0.38 |
| UCCGAGCAAUAUUACGCGUU | -3.39 ± 0.12 | -1.95 ± 0.13 |
| UCCGAGCAAUAUUACGCUGG | -3.33 ± 0.21 | -1.56 ± 0.19 |
| UCCGAGCAAUAUUACGGGGC | -4.28 ± 0.23 | -2.8 ± 0.17 |
| UCCGAGCAAUAUUACGGUGA | -0.746 ± 0.076 | -0.0617 ± 0.095 |
| UCCGAGCAAUAUUACGGUUC | -3.78 ± 0.39 | -3.02 ± 0.31 |
| UCCGAGCAAUAUUACGUACU | -3.69 ± 0.25 | -2.55 ± 0.34 |
| UCCGAGCAAUAUUACGUAUU | -1.95 ± 0.17 | -2.92 ± 0.43 |
| UCCGAGCAAUAUUACGUCUA | -3.11 ± 0.23 | -3 ± 0.24 |
| UCCGAGCAAUAUUACGUGUG | -3.13 ± 0.11 | -0.996 ± 0.088 |
| UCCGAGCAAUAUUACGUUAA | -2.36 ± 0.21 | -2.57 ± 0.28 |
| UCCGAGCAAUAUUACGUUUA | -2.86 ± 0.48 | -1.71 ± 0.23 |
| UCCUAGCAAUAUUACGAAGA | -1.13 ± 0.12 | 0.123 ± 0.12 |
| UCCUAGCAAUAUUACGACAG | -3.29 ± 0.25 | -2.42 ± 0.31 |
| UCCUAGCAAUAUUACGACUC | -2.94 ± 0.41 | -2.24 ± 0.36 |
| UCCUAGCAAUAUUACGACUG | -3.17 ± 0.27 | -3.52 ± 0.42 |
| UCCUAGCAAUAUUACGAGGA | -2.59 ± 0.48 | -2.62 ± 0.35 |
